Laboratory results reported in PMC11648230, “Structure–function analysis of tRNA t^6A-catalysis, assembly, and thermostability of Aquifex aeolicus TsaD2B2 tetramer in complex with TsaE” (The Journal of Biological Chemistry, 2024).

What was measured:
[1] = target: the molecule itself; assay: SEC; co-purified TsaD–TsaB complexes and variants; elution profiles compared with one another (tetramer against dimer); Superdex 200, after Ni-NTA
[2] = target: T1, Thermotoga maritima TsaDB dimer variant (Thermotoga maritima, UniProt Q9WXZ2 1-327; Q9WZX7 2-206, E20A | D21A | L22A | E24A | S26A | Y27A | T28A | E30A | K31A); assay: native gel or EMSA; native agarose-glycine gel (1.6%), 15 μg TsaD2B2 or variant and two-fold TsaE; gel and samples with 1 mM ATP and 2 mM MgCl2; settings: both partners purified
T1 construct: TsaD, Thermotoga maritima, UniProt Q9WXZ2; TsaB, Thermotoga maritima, UniProt Q9WZX7; Preformed complex of m11 and m13; also called T. maritima TsaDB; TmTsaDB; source: E. coli BL21 (DE3) or Rosetta pLysS, co-expressed, purified (Ni-NTA, SEC); copies: 1 + 1
T1 sequence (Q9WXZ2 whole entry, stated change not applied, one chain of several): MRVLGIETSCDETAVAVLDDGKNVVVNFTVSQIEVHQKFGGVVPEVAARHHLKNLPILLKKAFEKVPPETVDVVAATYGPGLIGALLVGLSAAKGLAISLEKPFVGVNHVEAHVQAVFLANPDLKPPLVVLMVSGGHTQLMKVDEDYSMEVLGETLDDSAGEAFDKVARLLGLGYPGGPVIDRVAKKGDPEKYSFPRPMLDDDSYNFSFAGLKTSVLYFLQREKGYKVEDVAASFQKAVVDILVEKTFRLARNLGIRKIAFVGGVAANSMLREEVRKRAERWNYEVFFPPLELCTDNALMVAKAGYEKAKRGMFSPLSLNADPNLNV

Row | binding result [2] | Binder | binding result [1]
1 |  | Thermotoga maritima TsaB (natural protein, TsaB, Thermotoga maritima, UniProt Q9WZX7; also called TmTsaB; source: E. coli BL21 (DE3) or Rosetta pLysS, co-expressed with TsaD (pET21a–BC14), purified (Ni-NTA, SEC)) NVLALDTSQRIRIGLRKGEDLFEISYTGEKKHAEILPVVVKKLLDELDLKVKDLDVVGVGIGPGGLTGLRVGIATVVGLVSPYDIPVAPLNSFEMTAKSCPADGVVLVARRARKGYHYCAVYLKDKGLNPLKEPSVVSDEELEEITKEFSPKIVLKDDLLISPAVLVEESERLFREKKTIHYYEIEPLYLQKSIAELNWEKKKRG | binds
2 | binds | Aquifex aeolicus TsaE (enzyme, UniProt O67011 1-133, looked up, TsaE, Aquifex aeolicus, UniProt O67011; Monomer by SEC; also called AaTsaE; YjeE; source: E. coli BL21 (DE3) or Rosetta pLysS, purified (Ni-NTA, SEC)) MELLKEVILESEEDTYKLAEEIAQLLKGSEVICLRGTLGAGKTTFVKALAKALKVKNPSAVRSPTFTLVNEYETDKGKLIHIDLYRVPDFDYSEFIGEGILAVEWEERDKPCDIILEIEILDENKRKVRIYRK | 
